± gives the uncertainty stated by the source.
Test: protein stability index of a GFP-peptide fusion (yeast GPS) (PSI 1-4); higher = more stable; sorted into four equal gates, so the index is relative within each strain
Summary of the method: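 Tiled 17-residue yeast protein peptides were fused downstream of GFP in a plasmid that also expresses Cherry, and the pooled library was carried in yeast. Mid-log cultures in leucine-free medium were sorted into four equal gates by GFP/Cherry fluorescence ratio, and plasmids from each gate were PCR-amplified and Illumina-sequenced, with reads assigned to strains by barcodes. The protein stability index for each peptide was each gate's read frequency times its gate number, summed.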

| Sequence | protein stability index (doa10∆) | protein stability index (pdr5∆) | protein stability index (san1∆) | protein stability index (ubr1∆) |
| --- | --- | --- | --- | --- |
| FITNVQSISQNSSSSTP [SWI1] | 2.38 ± 0.069 | 2.63 ± 0.063 | 2.43 ± 0.064 | 2.44 ± 0.05 |
| NNVVINFKDMSHVNKYG [PRP8] | 2.64 ± 0.1 | 2.6 ± 0.079 | 2.75 ± 0.059 | 2.57 ± 0.075 |
| FKNTRETAQAINGWELT [RPL17A] | 1.35 ± 0.031 | 1.58 ± 0.04 | 2.06 ± 0.062 | 1.4 ± 0.033 |
| FIEDLAPEQQVQQFAQL [UBP6] | 2.79 ± 0.059 | 3.02 ± 0.046 | 3.04 ± 0.049 | 2.98 ± 0.037 |
| RVVRPKSLDAETEAEED [RPO21] | 2.25 ± 0.19 | 1.21 ± 0.13 | 1.21 ± 0.19 | 1.31 ± 0.29 |
| TTEMLDKLMVTSIRSTP [MED6] | 2.27 ± 0.14 | 2.45 ± 0.12 | 2.81 ± 0.27 | 2.53 ± 0.089 |
| VGLRSNTHAVLVALKRN [PRE5] | 1.2 ± 0.037 | 1.45 ± 0.039 | 1.15 ± 0.093 | 1.21 ± 0.033 |
| NVKELWTEKKGKNVINR [SMD2] | 3.46 ± 0.22 |  | 3.54 ± 0.18 | 3.6 ± 0.11 |
| PNIADYITAKNNVVINF [PRP8] | 2.11 ± 0.087 | 1.26 ± 0.065 | 1.43 ± 0.28 | 1.26 ± 0.067 |
| SSSTQNVFVILMDKCLP [DIS3] | 1.97 ± 0.085 | 1.96 ± 0.053 | 2.13 ± 0.052 | 1.95 ± 0.043 |
| VSITPGKIEKIAQSKKK [SRP21] | 1.62 ± 0.081 | 1.8 ± 0.086 | 1.36 ± 0.13 | 1.49 ± 0.06 |
| VKLIVMLCTLTGYQNND [YJL039C/NUP192] | 1.89 ± 0.12 | 1.25 ± 0.078 | 1.29 ± 0.17 | 1.25 ± 0.098 |
| DAENEWNVEKFKKDFEV [RPC40] | 1.39 ± 0.12 | 1.7 ± 0.21 | 1.85 ± 0.16 | 1.82 ± 0.11 |
| VIRIPMQENDKINQERL [CSI1] | 2.42 ± 0.083 | 2.83 ± 0.085 | 2.37 ± 0.11 | 2.82 ± 0.072 |
| DTSDIIVDPTAEQLKIS [RRP46] | 1.79 ± 0.091 | 2.19 ± 0.097 | 2.73 ± 0.14 | 2.12 ± 0.092 |
| AHELQSEDVSRDHEKDT [YIL149C/MLP2] | 2.38 ± 0.085 | 2.73 ± 0.072 | 2.8 ± 0.061 | 2.68 ± 0.082 |
| IKWENAFVSVYSKNNPN [PRP8] | 2.11 ± 0.057 | 2.77 ± 0.05 | 3.07 ± 0.053 | 2.61 ± 0.031 |
| GSAINHHRIFDSSAHFK [YMR129W/POM152] | 2.57 ± 0.049 | 2.46 ± 0.062 | 2.64 ± 0.075 | 2.71 ± 0.039 |
| PTVDEQRQYKVQLLLHI [SNF11] | 1.8 ± 0.12 | 1.95 ± 0.082 | 1.82 ± 0.12 | 1.89 ± 0.065 |

| Sequence | protein stability index (doa10∆) | protein stability index (pdr5∆) | protein stability index (san1∆) | protein stability index (ubr1∆) |
| --- | --- | --- | --- | --- |
| TEDGWIYHGNHDVGELF [PRE2] | 2.05 ± 0.057 | 1.84 ± 0.049 | 2 ± 0.074 | 2.33 ± 0.043 |
| LDERGHEKIEDEDEDND [RPN4] | 3.37 ± 0.25 | 3.44 ± 0.15 | 3.48 ± 0.13 | 3.32 ± 0.17 |
| EAASSNKSFIVDQGQIY [ITC1] | 2.92 ± 0.1 | 2.95 ± 0.068 | 2.89 ± 0.044 | 2.93 ± 0.05 |
| TRAAKIAPRPLDLLRPV [RPL13A] | 2.95 ± 0.091 | 3.27 ± 0.11 | 3.15 ± 0.081 | 2.89 ± 0.054 |
| ENDTNMNETLNLKVELK [SMC4] | 3.43 ± 0.2 | 3.17 ± 0.084 | 3.09 ± 0.13 | 2.99 ± 0.077 |
| RVHANLQCISQINQGVP [SNF11] | 1.49 ± 0.043 | 1.42 ± 0.043 | 1.47 ± 0.067 | 1.89 ± 0.055 |
| YHLLNYDPIKRIDAFNA [SSN3] | 2.33 ± 0.065 | 1.77 ± 0.04 | 1.6 ± 0.074 | 1.73 ± 0.031 |
| EEKLKANKEKKKAEKAA [RPL24A] | 3.23 ± 0.07 | 3.33 ± 0.11 | 3.28 ± 0.043 | 3.48 ± 0.067 |
| QSLGLDDLQKFNGIENQ [ISW2] | 2.77 ± 0.1 | 2.73 ± 0.082 | 2.44 ± 0.07 | 2.69 ± 0.043 |
| LNVIIDQLAVSPEQIDA [YCS4] | 2.19 ± 0.05 | 2.44 ± 0.056 | 2.11 ± 0.064 | 2.11 ± 0.044 |
| QNAAANAEAKGLDATKL [RPL17A] | 2.8 ± 0.28 | 3.39 ± 0.24 | 1.93 ± 0.25 |  |
| GSRKVAGILRGYDIFLN [SMX2] | 2.5 ± 0.11 | 1.67 ± 0.08 | 1.83 ± 0.15 | 1.98 ± 0.099 |
| MEDVKIQKEEEPENNTV [SWI3] | 3.31 ± 0.11 | 3.35 ± 0.073 | 3.41 ± 0.058 | 3.41 ± 0.057 |
| ELNYFVGCKNLERLTLV [GRR1] | 2.92 ± 0.11 | 2.83 ± 0.093 | 2.19 ± 0.094 | 3.05 ± 0.081 |
| ADVSIKSILQEIRRSLS [POP5] | 1.59 ± 0.08 | 2.66 ± 0.083 | 2.44 ± 0.14 | 1.32 ± 0.06 |
| DNVQANDPAREKFSSFI [SNF12] | 2.94 ± 0.11 | 3.01 ± 0.086 | 3.1 ± 0.069 | 3.11 ± 0.043 |
| GNNPSWVNNPKKRFTPH [YDL088C/ASM4] | 3.42 ± 0.23 |  |  |  |
| PVKSIRARLKGKEGRIR [RPO21] | 3.36 ± 0.091 | 3.22 ± 0.11 | 3.33 ± 0.085 | 2.94 ± 0.079 |
| EKLLETNVSKQNDFLFS [ECM29] | 2.64 ± 0.1 | 2.97 ± 0.093 | 1.53 ± 0.16 | 1.76 ± 0.089 |

Reference: the supplement of paper PMC9732359
